Measured values published in publication PMC11589140 (2024).

B1: HA-tagged RUNX1T1, wild type [human] / FLAG-tagged Sin3A [not stated] (parent complex)
chain 1: MISVKRNTWRALSLVIGDCRKKGNFEYCQDRTEKHSTMPDSPVDVKTQSRLTPPTMPPPPTTQGAPRTSSFTPTTLTNGTSHSPTALNGAPSPPNGFSNGPSSSSSSSLANQQLPPACGARQLSKLKRFLTTLQQFGNDISPEIGERVRTLVLGLVNSTLTIEEFHSKLQEATNFPLRPFVIPFLKANLPLLQRELLHCARLAKQNPAQYLAQHEQLLLDASTTSPVDSSELLLDVNENGKRRTPDRTKENGFDREPLHSEHPSKRPCTISPGQRYSPNNGLSYQPNGLPHPTPPPPQHYRLDDMAIAHHYRDSYRHPSHRDLRDRNRPMGLHGTRQEEMIDHRLTDREWAEEWKHLDHLLNCIMDMVEKTRRSLTVLRRCQEADREELNYWIRRYSDAEDLKKGGGSSSSHSRQQSPVNPDPVALDAHREFLHRPASGYVPEEIWKKAEEAVNEVKRQAMTELQKAVSEAERKAHDMITTERAKMERTVAEAKRQAAEDALAVINQQEDSSESCWNCGRKASETCSGCNTARYCGSFCQHKDWEKHHHICGQTLQAQQQGDTPAVSSSVTPNSGAGSPMDTPPAATPRSTTPGTPSTIETTPR
chain 2: MKRRLDDQESPVYAAQQRRIPGSTEAFPHQHRVLAPAPPVYEAVSETMQSATGIQYSVTPSYQVSAMPQSSGSHGPAIAAVHSSHHHPTAVQPHGGQVVQSHAHPAPPVAPVQGQQQFQRLKVEDALSYLDQVKLQFGSQPQVYNDFLDIMKEFKSQSIDTPGVISRVSQLFKGHPDLIMGFNTFLPPGYKIEVQTNDMVNVTTPGQVHQIPTHGIQPQPQPPPQHPSQPSAQSAPAPAQPAPQPPPAKVSKPSQLQAHTPASQQTPPLPPYASPRSPPVQPHTPVTISLGTAPSLQNNQPVEFNHAINYVNKIKNRFQGQPDIYKAFLEILHTYQKEQRNAKEAGGNYTPALTEQEVYAQVARLFKNQEDLLSEFGQFLPDANSSVLLSKTTAEKVDSVRNDHGGTVKKPQLNNKPQRPSQNGCQIRRHPTGTTPPVKKKPKLLNLKDSSMADASKHGGGTESLFFDKVRKALRSAEAYENFLRCLVIFNQEVISRAELVQLVSPFLGKFPELFNWFKNFLGYKESVHLETYPKERATEGIAMEIDYASCKRLGSSYRALPKSYQQPKCTGRTPLCKEVLNDTWVSFPSWSEDSTFVSSKKTQYEEHIYRCEDERFELDVVLETNLATIRVLEAIQKKLSRLSAEEQAKFRLDNTLGGTSEVIHRKALQRIYADKAADIIDGLRKNPSIAVPIVLKRLKMKEEEWREAQRGFNKVWREQNEKYYLKSLDHQGINFKQNDTKVLRSKSLLNEIESIYDERQEQATEENAGVPVGPHLSLAYEDKQILEDAAALIIHHVKRQTGIQKEDKYKIKQIMHHFIPDLLFAQRGDLSDVEEEEEEEMDVDEATGAVKKHNGVGGSPPKSKLLFSNTAAQKLRGMDEVYNLFYVNNNWYIFMRLHQILCLRLLRICSQAERQIEEENREREWEREVLGIKRDKSDSPAIQLRLKEPMDVDVEDYYPAFLDMVRSLLDGNIDSSQYEDSLREMFTIHAYIAFTMDKLIQSIVRQLQHIVSDEICVQVTDLYLAENNNGATGGQLNTQNSRSLLESTYQRKAEQLMSDENCFKLMFIQSQGQVQLTIELLDTEEENSDDPVEAERWSDYVERYMNSDTTSPELREHLAQKPVFLPRNLRRIRKCQRGREQQEKEGKEGNSKKTMENVDSLDKLECRFKLNSYKMVYVIKSEDYMYRRTALLRAHQSHERVSKRLHQRFQAWVDKWTKEHVPREMAAETSKWLMGEGLEGLVPCTTTCDTETLHFVSINKYRVKYGTVFKAP
B2: HA-tagged RUNX1T1, wild type [human] / FLAG-tagged GFI-1 [not stated] (parent complex)
chain 1: B1 chain 1
chain 2: not shown

Variants of: B1
Test: co-immunoprecipitation (IP: HA) with densitometry quantification; HA-tagged RUNX1T1 and FLAG-tagged interactor co-expressed in HEK-293 cells; parent: 1; read off a plot

Row | ratio to parent | Variant
1 | ~2.6 | chain 1 E146K
2 | ~0.57 | chain 1 E163K

Variants of: B2
Test: as above

Row | ratio to parent | Variant
3 | ~1.6 | chain 1 E146K
4 | ~1.6 | chain 1 E163K
